# Assay results as given in US20240360238A1 (MAGENTA THERAPEUTICS, published 2024).
# Where a chain is given by its changes, count along the chain named.
# B1: HC-25/LC-25 (Ab25) (antibody, IgG1, V domains shown)
# VH: QIQLVQSGPELKKPGESVKISCKASGYTFTDYAIHWVKQAPGQGLRWMAWINTETGKPTYADDFKGRFVFSLEASASTAHLQISNLKNEDTATFFCAGGSHWFAYWGQGTLVTVSS
# VL: SYELIQPPSASVTLENTVSITCSGDELSNKYAHWYQQKPDKTILEVIYNDSERPSGISDRFSGSSSGTTAILTIRDAQAEDEADYYCLSTFSDDDLPIFGGGTKLTVL
# notes: From rat immunization/hybridoma; purified IgG in BLI; also called 025
# B2: HC-27/LC-27 (Ab27) (antibody, IgG1, V domains shown)
# VH: EVQLVESGGGLVQPGRSMKLSCKASGFTFSNYDMAWVRQAPTRGLEWVASISYDGITAYYRDSVKGRFTISRENAKSTLYLQLVSLRSEDTATYYCTTEGGYVYSGPHYFDYWGQGVMVTVSS
# VL: DIQMTQSPSSMSVSLGDTVTITCRASQDVGIFVNWFQQKPGRSPRRMIYRATNLADGVPSRFSGSRSGSDYSLTISSLESEDVADYHCLQYDEFPRTFGGGTKLELK
# notes: From rat immunization/hybridoma; purified IgG in BLI; also called 027
# B3: HC-77/LC-77 anti-CD117-ADC (conjugated to an amatoxin) (antibody, V domains shown)
# VH: QVQLVQSGAAVKKPGESLKISCKGSGYRFTTYWIGWVRQMPGKGLEWMGIIYPGDSDTRYSPSFQGQVTISAGKSISTAYLQWSSLKASDTAMYYCARHGRGYNGYEGAFDIWGQGTMVTVSS
# VL: DIQLTQSPSSLSASVGDRVTITCRASQGVISALAWYQQKPGKAPKLLIYDASILESGVPSRFSGSGSGTDFTLTISSLQPEDFATYYCQQFNSYPLTFGGGTKVEIK
# modifications: antibody conjugated to an amatoxin; site not stated
# B4: HC-248/LC-248 anti-CD117-ADC (conjugated to an amatoxin) (antibody, V domains shown)
# VH: B3 VH with Q1E, A10E, Y32S, G73D, R101L, M118L
# VL: B3 VL with L4M, V29I, I30G, I53T, F91L, S93G, G100Q, K103R, V104L
# modifications: antibody conjugated to an amatoxin; site not stated
# B5: HC-79/LC-79 anti-CD117-ADC (conjugated to an amatoxin) (antibody, V domains shown)
# VH: B3 VH
# VL: B3 VL with I30G
# modifications: antibody conjugated to an amatoxin; site not stated
# B6: HC-246/LC-246 anti-CD117-ADC (conjugated to an amatoxin) (antibody, V domains shown)
# VH: B3 VH
# VL: B3 VL with L4M, V29I, I30G, I53T, S93G, G100Q, K103R, V104L
# modifications: antibody conjugated to an amatoxin; site not stated
# B7: HC-245/LC-245 (Ab245) (antibody, V domains shown)
# VH: B3 VH with Q1E, A10E, Y32S, G73D, R101L, M118L
# VL: B3 VL with L4M, V29I, I30G, I53T, S93G, G100Q, K103R, V104L
# notes: IgG on anti-human Fc sensors; hIgG1/hKappa
# B8: HC-247/LC-247 anti-CD117-ADC (conjugated to an amatoxin) (antibody, V domains shown)
# VH: B3 VH
# VL: DIQMTQSPSSLSASVGDRVTITCRASRGISDYLAWYQQKPGKAPKLLIYDASNLETGVPSRFSGSGSGTDFTLTISSLQPEDFATYYCQQANSFPITFGQGTRLEIK
# modifications: antibody conjugated to an amatoxin; site not stated
# B9: HC-81/LC-81 anti-CD117-ADC (conjugated to an amatoxin) (antibody, V domains shown)
# VH: B3 VH
# VL: B3 VL with I53T
# modifications: antibody conjugated to an amatoxin; site not stated
# B10: HC-245/LC-245 anti-CD117-ADC (conjugated to an amatoxin) (antibody, V domains shown)
# VH: B3 VH with Q1E, A10E, Y32S, G73D, R101L, M118L
# VL: B3 VL with L4M, V29I, I30G, I53T, S93G, G100Q, K103R, V104L
# modifications: antibody conjugated to an amatoxin; site not stated
# B11: HC-246/LC-246 (Ab246) (antibody, V domains shown)
# VH: B3 VH
# VL: B3 VL with L4M, V29I, I30G, I53T, S93G, G100Q, K103R, V104L
# notes: as for B7
# Experiments:
# [1] = biological target: T1, purified human CD117 ectodomain (R&D Systems #332-SR) (human, UniProt P10721 26-524); assay: BLI, purified IgG on sensor, soluble ectodomain; apparent monovalent
# T1 construct: extracellular domain; Bought protein; also called c-kit; purified recombinant human CD117 ectodomain
# [2] = biological target: T2, purified rhesus CD117 ectodomain (rhesus, UniProt F6V858 26-524); assay: BLI, purified IgG on sensor, soluble rhesus ectodomain; apparent monovalent
# T2 construct: extracellular domain; also called rhesus antigen
# [3] = biological target: CD117 on Kasumi-1 cells and primary human CD34+ bone marrow cells (human, UniProt P10721 26-976); assay: cell-based or functional assay
# [4] = biological target: T1, purified human CD117 ectodomain (R&D …); assay: BLI; kdis compared to HC-1/LC-1 (Ab1)
# [5] = biological target: T1, purified human CD117 ectodomain (R&D …); assay: BLI, IgG on anti-human Fc sensor, 33 and 11 nM ectodomain;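 also: Kd, kon and koff are apparent values, with Kd reported as the apparent monovalent affinity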
# CD117 on Kasumi-1 cells and primary human CD34+ bone marrow cells, sequence (P10721 26-976): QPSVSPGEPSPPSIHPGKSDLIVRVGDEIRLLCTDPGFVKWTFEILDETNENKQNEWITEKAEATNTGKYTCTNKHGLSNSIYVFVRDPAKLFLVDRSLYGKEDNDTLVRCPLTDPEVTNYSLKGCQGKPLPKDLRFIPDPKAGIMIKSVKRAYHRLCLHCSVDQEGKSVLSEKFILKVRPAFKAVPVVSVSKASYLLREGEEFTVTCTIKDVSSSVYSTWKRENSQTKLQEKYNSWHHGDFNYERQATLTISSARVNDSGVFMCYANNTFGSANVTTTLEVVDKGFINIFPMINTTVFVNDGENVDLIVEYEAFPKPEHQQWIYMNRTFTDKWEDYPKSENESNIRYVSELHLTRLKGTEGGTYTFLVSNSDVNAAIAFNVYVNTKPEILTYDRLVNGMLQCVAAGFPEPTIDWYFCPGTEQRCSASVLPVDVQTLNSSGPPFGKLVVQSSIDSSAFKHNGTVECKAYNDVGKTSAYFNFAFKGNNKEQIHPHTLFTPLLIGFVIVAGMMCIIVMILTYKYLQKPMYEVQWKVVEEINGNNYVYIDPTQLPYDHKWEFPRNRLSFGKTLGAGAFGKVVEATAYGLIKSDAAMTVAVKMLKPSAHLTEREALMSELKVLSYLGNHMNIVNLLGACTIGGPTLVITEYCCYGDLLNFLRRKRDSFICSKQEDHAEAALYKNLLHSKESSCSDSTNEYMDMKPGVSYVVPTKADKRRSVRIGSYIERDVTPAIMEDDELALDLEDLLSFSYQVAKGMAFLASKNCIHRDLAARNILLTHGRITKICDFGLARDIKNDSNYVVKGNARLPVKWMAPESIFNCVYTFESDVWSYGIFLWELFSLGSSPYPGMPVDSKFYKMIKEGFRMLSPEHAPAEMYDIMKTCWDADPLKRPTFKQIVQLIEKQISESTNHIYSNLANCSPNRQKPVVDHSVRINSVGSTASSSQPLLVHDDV
# T1 sequence (P10721 26-524): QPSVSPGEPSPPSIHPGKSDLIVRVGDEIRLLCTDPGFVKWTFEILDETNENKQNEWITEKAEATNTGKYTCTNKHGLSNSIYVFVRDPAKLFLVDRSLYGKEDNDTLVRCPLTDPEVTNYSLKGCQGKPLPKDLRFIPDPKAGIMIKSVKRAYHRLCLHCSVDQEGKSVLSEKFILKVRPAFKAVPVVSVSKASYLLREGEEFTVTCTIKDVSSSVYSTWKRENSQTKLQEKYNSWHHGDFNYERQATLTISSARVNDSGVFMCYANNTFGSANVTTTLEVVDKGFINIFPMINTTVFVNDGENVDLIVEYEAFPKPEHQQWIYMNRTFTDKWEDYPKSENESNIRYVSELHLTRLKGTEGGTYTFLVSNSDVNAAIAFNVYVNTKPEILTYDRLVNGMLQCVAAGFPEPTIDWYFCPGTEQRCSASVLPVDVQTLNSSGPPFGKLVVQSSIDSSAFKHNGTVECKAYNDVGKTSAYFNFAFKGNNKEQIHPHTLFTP
binder,measurement,setting,value
B1,Kd,[1],520 pM
same,koff,[1],0.00153 s⁻¹
same,kon,[1],2.94e+06 M⁻¹ s⁻¹
same,Kd,[2],810 pM
same,koff,[2],0.00195 s⁻¹
same,kon,[2],2.41e+06 M⁻¹ s⁻¹
B2,Kd,[1],530 pM
same,koff,[1],0.000378 s⁻¹
same,kon,[1],712000 M⁻¹ s⁻¹
same,Kd,[2],890 pM
same,koff,[2],0.000275 s⁻¹
same,kon,[2],309000 M⁻¹ s⁻¹
B3,"% efficacy, killing of primary human CD34+CD90+ cells",[3],54.4%
same,"IC50, killing of primary human CD34+CD90+ cells (5 days, flow cytometry counts)",[3],6.94 pM
B4,"% efficacy, killing of primary human CD34+CD90+ cells",[3],47.8%
same,"IC50, killing of primary human CD34+CD90+ cells (5 days, flow cytometry counts)",[3],6.46 pM
B5,"% efficacy, killing of primary human CD34+CD90+ cells",[3],63.4%
same,"IC50, killing of primary human CD34+CD90+ cells (5 days, flow cytometry counts)",[3],7.09 pM
B6,"% efficacy, killing of primary human CD34+CD90+ cells",[3],67.8%
same,"IC50, killing of primary human CD34+CD90+ cells (5 days, flow cytometry counts)",[3],4.53 pM
B7,Fold improvement (off-rate),[4],7.9 fold
same,Kd,[5],813 pM
same,koff,[5],0.000285 s⁻¹
same,kon,[5],350000 M⁻¹ s⁻¹
B8,"% efficacy, killing of primary human CD34+CD90+ cells",[3],55.4%
same,"IC50, killing of primary human CD34+CD90+ cells (5 days, flow cytometry counts)",[3],8.37 pM
B9,"% efficacy, killing of primary human CD34+CD90+ cells",[3],68.7%
same,"IC50, killing of primary human CD34+CD90+ cells (5 days, flow cytometry counts)",[3],3.77 pM
B10,"% efficacy, killing of primary human CD34+CD90+ cells",[3],76.4%
same,"IC50, killing of primary human CD34+CD90+ cells (5 days, flow cytometry counts)",[3],5.78 pM
B11,Fold improvement (off-rate),[4],8.9 fold
same,Kd,[5],708 pM
same,koff,[5],0.000255 s⁻¹
same,kon,[5],361000 M⁻¹ s⁻¹
